From article PMC8294767 (2021) come the findings set out here.

By Kd is commonly meant a measure of binding affinity in units of concentration.

Assay [1] has as its target T1, galectin-3 (human (endogenous in A2780), UniProt P17931 1-250, biotinylated (printed: 'biotinylated galectin-3')). The experiment in a line: SPR.
The target in assay [2] is T1, galectin-3. Description: SPR; platelets exposed to Revacept.
Assay [3] deals with T1, galectin-3. Description: SPR; platelets exposed to anti-GPVI mAb. A general note: SPR reads the build-up and loss of mass on a sensor chip optically.
Assay [4] deals with T1, galectin-3. Description: SPR. This is another data set of the same source.

T1 sequence (P17931 whole entry): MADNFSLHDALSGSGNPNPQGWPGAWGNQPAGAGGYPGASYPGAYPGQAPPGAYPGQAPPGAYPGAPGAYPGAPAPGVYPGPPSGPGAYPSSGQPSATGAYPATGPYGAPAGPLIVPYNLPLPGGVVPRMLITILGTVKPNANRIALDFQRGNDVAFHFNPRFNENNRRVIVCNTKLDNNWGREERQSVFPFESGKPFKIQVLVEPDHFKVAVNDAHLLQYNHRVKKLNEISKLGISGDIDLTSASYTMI

B1: platelet glycoprotein VI (GPVI) (receptor)
chain: QSGPLPKPSLQALPSSLVPLEKPVTLRCQGPPGVDLYRLEKLSSSRYQDQAVLFIPAMKRSLAGRYRCSYQNGSLWSLPSDQLELVATGVFAKPSLSAQPGPAVSSGGDVTLQCQTRYGFDQFALYKEGDPAPYKNPERWYRASFPIITVTAAHSGTYRCYSFSSRDPYLWSAPSDPLELVVTGTSVTPSRLPTEPPSPVAEFSEATAELTVSFTNEVFTTETSRSITASPKESDSPAGPARQYYTKGNLVRICLGAVILIILAGFLAEDWHSRRKRLRHRGRAVQRPLPPLPPLPLTRKSNGGQDGGRQDVHSRGLCS
With B1, the Kd in the assay with galectin-3 [1] turned out to be 42.2 µM; with galectin-3 [2], 16.2 µM; with galectin-3 [3], 21.4 µM; with galectin-3 [4] it was 48.6 µM.
